Here are results for 2 molecules from US20170174740A1.

Experiment [1] concerns the target syntaxin (SNARE protein; expressed from a plasmid in CHO cells for co-immunoprecipitation). Put plainly: co-immunoprecipitation with anti-syntaxin from CHO cells expressing syntaxin and Kv2.1 with C1a441-472 co-expressed as competitor; the ratio is Kv2.1 pulled down with syntaxin; mean±SEM, n=3.
Experiment [2] shares this target. Nature of the experiment: co-immunoprecipitation with anti-syntaxin from CHO cells expressing syntaxin and Kv2.1, no C1a segment; mean±SEM, n=3.

Chain of syntaxin (SNARE protein; expressed from a plasmid in CHO cells for co-immunoprecipitation) (Q16623 whole entry): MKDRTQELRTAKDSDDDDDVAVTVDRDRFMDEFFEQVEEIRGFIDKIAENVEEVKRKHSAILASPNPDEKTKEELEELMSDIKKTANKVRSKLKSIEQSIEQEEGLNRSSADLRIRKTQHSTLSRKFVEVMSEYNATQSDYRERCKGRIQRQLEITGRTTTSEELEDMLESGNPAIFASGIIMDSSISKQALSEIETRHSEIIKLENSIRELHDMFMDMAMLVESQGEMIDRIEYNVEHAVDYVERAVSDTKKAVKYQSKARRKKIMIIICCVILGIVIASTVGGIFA

Turning to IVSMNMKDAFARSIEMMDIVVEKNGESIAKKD [C1a441-472 (overlapping middle segment of C1a)], the ratio of Kv2.1 to syntaxin immunoblots in experiment [1] was 0.25.

B1: Kv2.1 (wild-type voltage-dependent delayed-rectifier K+ channel, expressed in CHO cells) (protein)
chain: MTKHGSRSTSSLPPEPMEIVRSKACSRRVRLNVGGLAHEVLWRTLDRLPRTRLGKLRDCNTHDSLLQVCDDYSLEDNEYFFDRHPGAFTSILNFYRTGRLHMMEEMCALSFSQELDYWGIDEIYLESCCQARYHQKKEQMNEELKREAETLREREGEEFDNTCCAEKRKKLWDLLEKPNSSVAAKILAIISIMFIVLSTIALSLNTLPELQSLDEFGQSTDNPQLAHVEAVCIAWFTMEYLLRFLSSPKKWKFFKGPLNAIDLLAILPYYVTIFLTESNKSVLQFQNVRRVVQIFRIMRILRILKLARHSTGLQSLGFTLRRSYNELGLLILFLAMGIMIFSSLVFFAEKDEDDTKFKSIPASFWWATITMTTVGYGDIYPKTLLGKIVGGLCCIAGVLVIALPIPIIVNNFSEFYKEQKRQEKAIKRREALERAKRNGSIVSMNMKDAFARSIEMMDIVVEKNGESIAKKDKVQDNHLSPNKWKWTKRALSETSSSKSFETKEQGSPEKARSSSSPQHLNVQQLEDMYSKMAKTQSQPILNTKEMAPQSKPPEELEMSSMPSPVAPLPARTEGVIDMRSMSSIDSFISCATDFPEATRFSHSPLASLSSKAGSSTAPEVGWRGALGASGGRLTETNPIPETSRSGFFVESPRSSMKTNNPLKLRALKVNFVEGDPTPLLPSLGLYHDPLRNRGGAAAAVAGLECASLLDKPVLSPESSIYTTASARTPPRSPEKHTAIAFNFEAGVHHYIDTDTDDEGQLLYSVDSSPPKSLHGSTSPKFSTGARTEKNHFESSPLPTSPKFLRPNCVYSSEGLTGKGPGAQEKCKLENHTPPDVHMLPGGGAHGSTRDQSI
Take B1: the ratio of Kv2.1 to syntaxin immunoblots in experiment [2] was found to be 0.24.
